Results from the supplement of paper PMC7877785.
± gives the uncertainty stated by the source.

Experiment: self-splicing fitness, log relative to wild type (ln ratio); higher = more splicing; Tetrahymena group I intron in knt gene, E. coli kanamycin selection, DiMSum; sequences stand for … in CUCUCU…GGAGGGAAAAGUUAUCAGGCAUGCACCUGGUAGCUAGUCUUUAAACCAAUAGAUUGCAUCGGUUUAAAAGGCAAGACCGUCAAAUUGCGGGAAAGGGGUCAACAGCCGUUCAGUACCAAGUCUCAGGGGAAACUUUGAGAUGGCCUUGCAAAGGGUAUGGUAAUAAGCUGACGGACAUGGUCCUAACCACGCAGCCAAGUCCUAAGUCAACAGAUCUUCUGUUGAUAUGGAUGCAGUUCACAGACUAAAUGUCGGUCGGGGAAGAUGUAUUCUUCUCAUAAGAUAUAGUCGGACCUCUCCUUAAUGGGAGCUAGCGGAUGAAGUGAUGCAACACUGGAGCCGCUGGGAACUAAUUUGUAUGCGAAAGUAUAUUGAUUAGUUUUGGAGUACUCGUGGUCG
In short: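 A randomised library covering all eight P1ex-region intron nucleotides was built with the intron in the knt kanamycin-resistance gene on pET-22b(+) and held in E. coli BL21(DE3). Cells were grown overnight at 37°C or 30°C on LB agar, with or without 25 μg/mL kanamycin, plus 100 μg/mL carbenicillin, 50 μM IPTG and 0.2% rhamnose, and pooled colonies were amplicon-sequenced on an Illumina HiSeq 2500. DiMSum fitness is the error-weighted combination of wild-type-normalised replicate fold changes, kanamycin versus none.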

| Sequence | self-splicing fitness (ln) (30 °C) | self-splicing fitness (ln) (37 °C) |
| --- | --- | --- |
| CCCGAGCAAUAUUACGGUGA | -2.19 ± 0.1 | -1.32 ± 0.097 |
| CCCGAGCAAUAUUACGGUGC | -4.61 ± 0.32 | -2.77 ± 0.16 |
| CCCGAGCAAUAUUACGGUGU | -3.28 ± 0.1 | -1.67 ± 0.094 |
| CCCGAGCAAUAUUACGGUUA | -2.05 ± 0.1 | -1.36 ± 0.1 |
| CCCGAGCAAUAUUACGUAGG | -2.04 ± 0.11 | -1.16 ± 0.14 |
| CCCGAGCAAUAUUACGUAUA | -2.79 ± 0.17 | -2.82 ± 0.26 |
| CCCGAGCAAUAUUACGUCCA | -3.48 ± 0.25 | -2.26 ± 0.24 |
| CCCGAGCAAUAUUACGUCCC | -2.8 ± 0.24 | -2.3 ± 0.49 |
| CCCGAGCAAUAUUACGUGAC |  | -2.41 ± 0.3 |
| CCCGAGCAAUAUUACGUUAG | -3.6 ± 0.17 | -2.8 ± 0.22 |
| CCCGAGCAAUAUUACGUUUC | -3.44 ± 0.2 | -3.54 ± 0.24 |
| CCCUAGCAAUAUUACGAAGC | -2.97 ± 0.43 | -2.92 ± 0.27 |
| CCCUAGCAAUAUUACGACAA | -3.22 ± 0.35 | -2.1 ± 0.28 |
| CCCUAGCAAUAUUACGACGG | -2.7 ± 0.14 | -2.87 ± 0.34 |
| CCCUAGCAAUAUUACGACUA | -2.51 ± 0.29 | -2.21 ± 0.21 |
| CCCUAGCAAUAUUACGCCAU | -4.3 ± 0.42 | -2.43 ± 0.39 |
| CCCUAGCAAUAUUACGCGUA | -2.29 ± 0.31 | -0.911 ± 0.2 |
| CCCUAGCAAUAUUACGCGUC | -3.35 ± 0.14 | -3.21 ± 0.23 |
| CCCUAGCAAUAUUACGCUGG | -4.39 ± 0.27 | -2.89 ± 0.27 |
| CCCUAGCAAUAUUACGGAAU | -3.36 ± 0.37 | -1.82 ± 0.31 |
| CCCUAGCAAUAUUACGGCCU | -2.9 ± 0.21 |  |
| CCCUAGCAAUAUUACGGCGG | -2.6 ± 0.14 | -2.42 ± 0.18 |
| CCCUAGCAAUAUUACGGCUG | -2.46 ± 0.28 | -1.38 ± 0.3 |
| CCCUAGCAAUAUUACGGUUC | -3.92 ± 0.16 | -2.04 ± 0.21 |
| CCCUAGCAAUAUUACGGUUG | -3.3 ± 0.14 | -2.04 ± 0.11 |
| CCCUAGCAAUAUUACGUAGU | -3.63 ± 0.18 | -2.51 ± 0.17 |

| Sequence | self-splicing fitness (ln) (30 °C) | self-splicing fitness (ln) (37 °C) |
| --- | --- | --- |
| CCCUAGCAAUAUUACGUGUG | -4.41 ± 0.24 | -2.43 ± 0.13 |
| CCCUAGCAAUAUUACGUUAA | -3.42 ± 0.18 | -3.16 ± 0.29 |
| CCGAAGCAAUAUUACGAAAC | -3.12 ± 0.31 | -2.46 ± 0.37 |
| CCGAAGCAAUAUUACGACGU | -1.03 ± 0.08 | 0.0423 ± 0.092 |
| CCGAAGCAAUAUUACGAGCU | -3.83 ± 0.27 | -2.47 ± 0.19 |
| CCGAAGCAAUAUUACGAGUC | -3.86 ± 0.21 | -2.53 ± 0.19 |
| CCGAAGCAAUAUUACGCAAG | -1.83 ± 0.17 | -1.12 ± 0.17 |
| CCGAAGCAAUAUUACGCAGG | -2.04 ± 0.12 |  |
| CCGAAGCAAUAUUACGCCAU | -4.11 ± 0.27 | -3.25 ± 0.21 |
| CCGAAGCAAUAUUACGCGGG | -3.3 ± 0.19 | -2.62 ± 0.24 |
| CCGAAGCAAUAUUACGCUAG | -2.1 ± 0.18 | -1.87 ± 0.22 |
| CCGAAGCAAUAUUACGCUAU |  | -2.24 ± 0.25 |
| CCGAAGCAAUAUUACGCUCU | -3.24 ± 0.4 |  |
| CCGAAGCAAUAUUACGCUGU | -3.74 ± 0.32 | -2.84 ± 0.4 |
| CCGAAGCAAUAUUACGGAAU | -3.74 ± 0.19 | -3 ± 0.24 |
| CCGAAGCAAUAUUACGGAGG | -4.7 ± 0.31 | -2.44 ± 0.21 |
| CCGAAGCAAUAUUACGGCCA | -2.76 ± 0.17 | -2.3 ± 0.18 |
| CCGAAGCAAUAUUACGGCUA | -2.89 ± 0.29 | -1.64 ± 0.24 |
| CCGAAGCAAUAUUACGGCUG | -1.53 ± 0.092 | -0.38 ± 0.11 |
| CCGAAGCAAUAUUACGGGUG | -0.732 ± 0.047 | -0.639 ± 0.061 |
| CCGAAGCAAUAUUACGGUAA | -1.62 ± 0.13 | -3.15 ± 0.23 |
| CCGAAGCAAUAUUACGGUUA |  | -2.08 ± 0.24 |
| CCGAAGCAAUAUUACGUACC | -3.47 ± 0.16 | -2.5 ± 0.21 |
| CCGAAGCAAUAUUACGUAGC | -3 ± 0.33 |  |
| CCGAAGCAAUAUUACGUAUA |  | -2.51 ± 0.41 |
| CCGAAGCAAUAUUACGUCUA | -3.69 ± 0.35 | -2.25 ± 0.3 |

| Sequence | self-splicing fitness (ln) (30 °C) | self-splicing fitness (ln) (37 °C) |
| --- | --- | --- |
| CCGAAGCAAUAUUACGUUGC | -3.51 ± 0.21 | -2.66 ± 0.22 |
| CCGCAGCAAUAUUACGAAAA | -3.37 ± 0.21 | -2.39 ± 0.16 |
| CCGCAGCAAUAUUACGAACG | -0.44 ± 0.085 | 0.193 ± 0.1 |
| CCGCAGCAAUAUUACGACCA | -3.34 ± 0.25 | -1.95 ± 0.25 |
| CCGCAGCAAUAUUACGAGCU | -2.93 ± 0.27 | -3.37 ± 0.28 |
| CCGCAGCAAUAUUACGAUAC | -2.77 ± 0.28 | -2.19 ± 0.46 |
| CCGCAGCAAUAUUACGAUCG | 0.289 ± 0.083 | 0.186 ± 0.11 |
| CCGCAGCAAUAUUACGCCUU | -3.2 ± 0.21 | -2.08 ± 0.16 |
| CCGCAGCAAUAUUACGCGAU | -3.44 ± 0.14 | -3.44 ± 0.21 |
| CCGCAGCAAUAUUACGCGCC | -2.71 ± 0.25 | -2.02 ± 0.47 |
| CCGCAGCAAUAUUACGCGGA | -3.03 ± 0.29 | -3.11 ± 0.3 |
| CCGCAGCAAUAUUACGCGUG | -2.75 ± 0.15 | -2.38 ± 0.17 |
| CCGCAGCAAUAUUACGCUCG | -1.9 ± 0.07 | -1.41 ± 0.094 |
| CCGCAGCAAUAUUACGGAAA | -3.75 ± 0.3 | -3.29 ± 0.43 |
| CCGCAGCAAUAUUACGGCAC | -2.89 ± 0.21 | -2.91 ± 0.25 |
| CCGCAGCAAUAUUACGGGAU | -4.16 ± 0.33 | -1.82 ± 0.16 |
| CCGCAGCAAUAUUACGGGGG | -3.71 ± 0.18 | -3.2 ± 0.3 |
| CCGCAGCAAUAUUACGGGUA | -4.25 ± 0.42 | -2.44 ± 0.22 |
| CCGCAGCAAUAUUACGGUAG | -2.16 ± 0.086 | -1.11 ± 0.093 |
| CCGCAGCAAUAUUACGGUUU | -3.45 ± 0.14 | -2.86 ± 0.16 |
| CCGCAGCAAUAUUACGUAGA | -3.07 ± 0.17 | -1.37 ± 0.12 |
| CCGCAGCAAUAUUACGUCCC |  | -2.65 ± 0.49 |
| CCGCAGCAAUAUUACGUUCC | -3.27 ± 0.41 | -1.54 ± 0.43 |
| CCGCAGCAAUAUUACGUUGU | -3.23 ± 0.16 | -3.8 ± 0.26 |
| CCGCAGCAAUAUUACGUUUU | -3.13 ± 0.13 | -3.26 ± 0.2 |
| CCGGAGCAAUAUUACGAAGC |  | -2.8 ± 0.36 |

| Sequence | self-splicing fitness (ln) (30 °C) | self-splicing fitness (ln) (37 °C) |
| --- | --- | --- |
| CCGGAGCAAUAUUACGACUG | -0.64 ± 0.14 | -0.428 ± 0.22 |
| CCGGAGCAAUAUUACGAGUA | -3.34 ± 0.27 | -2 ± 0.26 |
| CCGGAGCAAUAUUACGAUCG | -0.502 ± 0.12 | 0.299 ± 0.16 |
| CCGGAGCAAUAUUACGCAAA |  | -2.55 ± 0.33 |
| CCGGAGCAAUAUUACGCCGG |  | -3.09 ± 0.28 |
| CCGGAGCAAUAUUACGCCUA | -2.12 ± 0.26 | -2.59 ± 0.29 |
| CCGGAGCAAUAUUACGCGAA | -3.59 ± 0.42 | -2.41 ± 0.36 |
| CCGGAGCAAUAUUACGCGGC | -3.5 ± 0.31 | -2.33 ± 0.26 |
| CCGGAGCAAUAUUACGCUGC |  | -2.04 ± 0.38 |
| CCGGAGCAAUAUUACGCUUC | -2.55 ± 0.24 | -0.412 ± 0.19 |
| CCGGAGCAAUAUUACGGAAU | -2.95 ± 0.26 | -2.96 ± 0.25 |
| CCGGAGCAAUAUUACGGACU |  | -1.56 ± 0.28 |
| CCGGAGCAAUAUUACGGAUG | -2.78 ± 0.22 | -1.92 ± 0.23 |
| CCGGAGCAAUAUUACGGCGU | -4.4 ± 0.46 | -2.84 ± 0.26 |
| CCGGAGCAAUAUUACGGCUA |  | -0.58 ± 0.2 |
| CCGGAGCAAUAUUACGGCUC |  | -2.08 ± 0.37 |
| CCGGAGCAAUAUUACGGGUG | -1.61 ± 0.093 | -1.09 ± 0.1 |
| CCGGAGCAAUAUUACGGUGA | -3.8 ± 0.31 | -2.29 ± 0.23 |
| CCGGAGCAAUAUUACGUACC |  | -0.504 ± 0.41 |
| CCGGAGCAAUAUUACGUAUC |  | -2.58 ± 0.29 |
| CCGGAGCAAUAUUACGUAUU |  | -1.05 ± 0.21 |
| CCGGAGCAAUAUUACGUCAU | -4 ± 0.24 | -2.48 ± 0.21 |
| CCGGAGCAAUAUUACGUCUA |  | -1.85 ± 0.33 |
